In article PMC2168396 (The EMBO Journal, 2007):
Residue numbers refer to the chain shown, from its start. Names may count otherwise. Ends that are not written are not given here.

B1: talin 2300–2541 Q2388R (domain or fragment, mouse, UniProt P26039 2300-2541, looked up)
chain: DPTVIAENELLGAAAAIEAAAKKLEQLKPRAKPKEADESLNFEEQILEAAKSIAAATSALVKAASAAQRELVAQGKVGAIPANALDDGRWSQGLISAARMVAAATNNLCEAANAAVQGHASQEKLISSAKQVAASTAQLLVACKVKADQDSEAMKRLQAAGNAVKRASDNLVKAAQKAAAFEDQENETVVVKEKMVGGIAQIIAAQEEMLRKERELEEARKKLAQIRQQQYKFLPSELRDEH
B2: talin 2300–2541 Q2437E (domain or fragment, mouse, UniProt P26039 2300-2541, looked up)
chain: B1 chain with R89Q, Q138E
B3: talin 2300–2541 R2513A (domain or fragment, mouse, UniProt P26039 2300-2541, looked up)
chain: B1 chain with R89Q, R214A
B4: talin 2300–2541 V2376D (domain or fragment, mouse, UniProt P26039 2300-2541, looked up)
chain: B1 chain with V77D, R89Q
B5: talin 2300–2541 R2510A (domain or fragment, mouse, UniProt P26039 2300-2541, looked up)
chain: B1 chain with R89Q, R211A
B6: talin 2300–2541 V2444D (domain or fragment, mouse, UniProt P26039 2300-2541, looked up)
chain: B1 chain with R89Q, V145D
B7: talin 2334–2541 (upstream helix deleted) (domain or fragment, mouse, UniProt P26039 2334-2541, looked up)
chain: EADESLNFEEQILEAAKSIAAATSALVKAASAAQRELVAQGKVGAIPANALDDGQWSQGLISAARMVAAATNNLCEAANAAVQGHASQEKLISSAKQVAASTAQLLVACKVKADQDSEAMKRLQAAGNAVKRASDNLVKAAQKAAAFEDQENETVVVKEKMVGGIAQIIAAQEEMLRKERELEEARKKLAQIRQQQYKFLPSELRDEH

Biological target: the molecule itself
Experiment: crystal structure

Binder	binding result
MVGGIAQIIAAQEEMLRKERELEEARKKLAQIRQQQYKFLPSELRDEH (domain or fragment, mouse, UniProt P26039 2494-2541, looked up, also: selenomethionine in derivative used for phasing) [talin 2494–2541 (dimerisation domain)]	binds

Biological target: the molecule itself
Experiment: SEC + other: NMR

Binder	stoichiometry N
B1	2
B2	2
B3	2
B4	2
B5	2
B6	2
B7	2

biological target: filamentous actin (F-actin) from rabbit skeletal muscle (rabbit, UniProt P68135 1-377); experiment: co-sedimentation

co-sedimentation pellet (% of WT)	Binder
102 ± 9 % of WT	B1
62 ± 13 % of WT	B2
66 ± 14 % of WT	B3
95 ± 5 % of WT	B4
77 ± 5 % of WT	B5
54 ± 10 % of WT	B6
262 ± 18 % of WT	B7
